Tests used:
[1] = substrate: S=C=NCCc1ccccc1; assay: purified protein; format: biochemical, Synechocystis sp. PCC 6803; design: Vmax: unit not given here; conditions: co-substrate 1 mM GSH, 50 mM potassium phosphate pH 6.5, 150 mM NaCl, 30 °C
[2] = biological target: the molecule itself; assay: SEC; Superdex 200 10/300 GL, 20 mM phosphate buffer pH 8.0, 150 mM NaCl, 2 mM GSH, 0.5 mL/min, 25°C; calibrated with molecular weight standards

B1: Glutathione S-transferase sll0067 from Synechocystis PCC 6803 (enzyme, UniProt Q55139 1-184, looked up)
chain: MIKLYGAPQSRASIIQWYLEELSLPYEFVNVNLKEGEHRQAPYLAINPFGKVPAIADGNFHLWESGAILLYLAEKASTIPADAQARALVNQWILFANSTLANGLFIEAVREKEMPRLLQSLEKILGRSPFILGEKFSVVDVAVGSILAYVPIMLKLNFDDYPAVAAYVQGLVQRPAFQASIGAR
notes: gene of 0.55 kb amplified from genomic DNA with primers from the ATG to the stop codon; subunit of about 20 kDa; Cloned at BamHI and HindIII sites of pQE30 and purified on Ni-NTA; also called GST sll0067; recombinant sll0067; source: E. coli M15, purified (Ni-NTA agarose)
[1]
  Km: 319.3 ± 33 µM
  Vmax: 21.8
  kcat: 15.2 ± 0.58 s⁻¹
  kcat/Km: 47500 ± 620 M⁻¹ s⁻¹
[2]
  stoichiometry N: 2

Source: PMC4429112, “Characterization of a Highly pH Stable Chi-Class Glutathione S-Transferase from Synechocystis PCC 6803” (PLoS ONE, 2015)
